{
  "source": "paper PMC9513230",
  "about": "“Inhibition of Plasmodium falciparum Hsp70-Hop partnership by 2-phenylthynesulfonamide” (Frontiers in Molecular Biosciences, 2022)",
  "molecules": {"B1": {"name": "Plasmodium falciparum Hsp90-Hsp70 organizing protein (natural protein, UniProt Q8ILC1 1-564, looked up)", "chain": "MVNKEEAQRLKELGNKCFQEGKYEEAVKYFSDAITNDPLDHVLYSNLSGAFASLGRFYEALESANKCISIKKDWPKGYIRKGCAEHGLRQLSNAEKTYLEGLKIDPNNKSLQDALSKVRNENMLENAQLIAHLNNIIENDPQLKSYKEENSNYPHELLNTIKSINSNPMNIRIILSTCHPKISEGVEKFFGFKFTGEGNDAEERQRQQREEEERRKKKEEEERKKKEEEEMKKQNRTPEQIQGDEHKLKGNEFYKQKKFDEALKEYEEAIQINPNDIMYHYNKAAVHIEMKNYDKAVETCLYAIENRYNFKAEFIQVAKLYNRLAISYINMKKYDLAIEAYRKSLVEDNNRATRNALKELERRKEKEEKEAYIDPDKAEEHKNKGNEYFKNNDFPNAKKEYDEAIRRNPNDAKLYSNRAAALTKLIEYPSALEDVMKAIELDPTFVKAYSRKGNLHFFMKDYYKALQAYNKGLELDPNNKECLEGYQRCAFKIDEMSKSEKVDEEQFKKSMADPEIQQIISDPQFQIILQKLNENPNSISEYIKDPKIFNGLQKLIAAGILKVR", "notes": "Plasmodium falciparum Hsp90-Hsp70 organizing protein, PfHop (PF3D7_1434300); also called PfHop; PF3D7_1434300"}},
  "key": {"[1]": {"molecular_target": "PfHsp70-1-PfHop association (Plasmodium falciparum, UniProt Q8IB24+Q8ILC1)", "experiment": "ELISA for the direct association of PfHsp70-1 and PfHop", "assay_type": "biochemical", "details": "for Effect on association of PfHsp70-1 and PfHop: 25 µM nucleotide or inhibitor", "experimental": "An enzyme-linked immunosorbent assay (ELISA) was used to validate the effect of PES on the direct association of PfHsp70-1 and PfHop following a previously described protocol ([Mabate et al., 2018]). Briefly, ligand (5 μg/ml of PfHsp70-1) suspended in 5 mM sodium bicarbonate (NaHCO3) at pH 9.5 was noncovalently immobilized onto a 96 well plate overnight at 4 C. BSA (5 μg/ml) was used as a ligand for the negative control. The wells were washed with 150 µl TBST which contains (Tris-buffered saline- Tween (TBST; 20 mM Tris HCl, pH 7.5, 500 mM NaCl supplemented with 0.1% Tween 20) prior to blocking with 5% fat-free milk in TBST and incubated at 25 C for 1 h. The wells were washed using TBST for a total of 10 min. Varying concentrations (0–1,000 nM) of analyte PfHop were added to the wells and incubated for 2 h at 25 °C. To remove the unbound analyte, the plate was washed with 150 µl TBST three times before the addition of rabbit-raised α-PfHop antibody (1: 4,000) followed by incubation at 25°C for 1 h. Subsequently, the wells were washed with 150 µl TBST three times before the addition of 100 µl secondary HRP conjugated goat-raised α-rabbit antibody (1: 4,000) and incubated for 45 min at 25 °C. The substrate, 3,3’5,5’ –tetramethylbenzidine (TMB) (Bio Scientific, United States) was added into the wells and incubated for 2 min at 25 C. Color development was monitored by recording absorbance readings at 370 nm at 5 min time intervals for 30 min using a SpectraMax M3 Microplate reader (Molecular Devices, United States). To determine the effect of the inhibitor, the assay was conducted in the presence of 25 µM) of PES. […] Furthermore, the assay was repeated interchanging the ligand and analyte to validate data reproducibility. The generated data were analyzed taking into account the background signal generated by BSA which served as the control protein. The absorbance values obtained at the highest concentration of each analyte were averaged to represent maximum (100%) binding. Titration curves were then generated using GraphPad Prism 9.3.1 (GraphPad Software, United States). The relative binding affinities of PES under each experimental setting were normalized relative to the affinity estimated for assay conducted in the absence of nucleotide at the highest concentration of PfHop. Statistical analysis was conducted to establish significant differences at p < 0.05 using a student t-test."}, "[2]": {"system": "Asexual P. falciparum strain 3D7 parasites", "details": "read-out: IC50 published potency, ref Smilkstein et al., 2004; cited from earlier work"}, "[3]": {"system": "Asexual P. falciparum strain 3D7 parasites", "experiment": "Parasite growth inhibition assay (SYBR Gold)", "assay_type": "cell-based", "details": "Plasmodium falciparum, 3D7, 96 h, read-out: IC50 parasite growth", "experimental": "Parasite growth without any drug present, which allowed the parasites to proliferate unrestricted, was used as negative drug control. SYBRTM Gold DNA stain (Invitrogen, ThermoFisher Scientific Inc., Germany) was used to measure the proliferation of the parasites compared to the controls as previously described ([[…] al., 2004]). Fluorescence was measured using a TECAN Spark® multimode microplate reader (Tecan Trading AG, Switzerland) and the data were analyzed using SigmaPlot, version 12 (Systat Software Inc., IL, United States)."}, "PfHop": {"molecular_target": "T1, PfHop (Plasmodium falciparum, UniProt Q8ILC1)", "T1 construct": "His; made in house; host or cells: E. coli XL1 Blue", "T1 sequence (Q8ILC1 1-564)": "B1 chain", "experiment": "SPR equilibrium binding to immobilized PfHop", "experimental": "The steady-state equilibrium binding kinetics for the inhibitors on either PfHsp70-1 or PfHop were investigated using BioNavis Navi 420A ILVES multi-parametric surface plasmon resonance (MP-SPR) system (BioNavis, Finland) following a previously described method ([Lebepe et al., 2020]; [Chakafana et al., 2021]). Briefly, filter-sterilized de-gassed PBS (4.3 mM Na2HPO4, 1.4 mM KH2PO4, 137 mM NaCl, 3 mM KCl, 0.005% (v/v) Tween 20, and 20 mM EDTA; pH 7.4) was used as running buffer for the assay. The ligand (0.1 μg/ml of PfHsp70-1/PfHop) was immobilized onto a carboxymethyl dextran (CMD 3-D) gold sensor chip through amine coupling. PES was injected (flow rate of 50 μl/min) as analyte at varying final concentrations (0, 1.25, 2.5, 5, 10, 20 nM). […] Steady-state equilibrium was achieved after allowing the interaction to occur for 8 min at 25°C, followed by dissociation for 4 min at 25°C, respectively. The data generated were analyzed using Data Viewer (BioNavis, Finland) after subtraction of baseline (signals generated on the chip surface without protein immobilized and buffer without inhibitor). The resultant sensorgrams were analyzed to determine the equilibrium binding affinities using Trace Drawer software version 1.8 (Ridgeview Instruments; Sweden)."}, "[4]": {"molecular_target": "T2, Plasmodium falciparum Hsp70-1 (Plasmodium falciparum, UniProt Q8IB24 1-677)", "T2 construct": "Plasmodium falciparum Hsp70-1 (PF3D7_0818900), cytosolic Hsp70; also called PfHsp70-1; PF3D7_0818900", "experiment": "SPR; ligand and analyte switched: PfHop immobilised, PfHsp70-1 analyte; with EGCG; bivalent fit model", "details": "both partners purified"}, "[5]": {"molecular_target": "T2, Plasmodium falciparum Hsp70-1", "experiment": "SPR; ligand and analyte switched: PfHop immobilised, PfHsp70-1 analyte; with ADP; bivalent fit model", "details": "both partners purified"}, "[6]": {"molecular_target": "T2, Plasmodium falciparum Hsp70-1", "experiment": "SPR; PfHsp70-1 immobilised as ligand; PfHop analyte 0-2000 nM, 25 C, PBS; with 25 uM ATP; bivalent fit model", "details": "both partners purified"}, "[7]": {"molecular_target": "T2, Plasmodium falciparum Hsp70-1", "experiment": "SPR; PfHsp70-1 immobilised as ligand; PfHop analyte 0-2000 nM, 25 C, PBS; with 25 uM PES; bivalent fit model", "details": "both partners purified"}, "[8]": {"molecular_target": "T2, Plasmodium falciparum Hsp70-1", "experiment": "SPR; PfHsp70-1 immobilised as ligand; PfHop analyte 0-2000 nM, 25 C, PBS; with 25 uM ADP; bivalent fit model", "details": "both partners purified"}, "[9]": {"molecular_target": "T2, Plasmodium falciparum Hsp70-1", "experiment": "SPR; ligand and analyte switched: PfHop immobilised, PfHsp70-1 analyte; no nucleotide or inhibitor (NN); bivalent fit model", "details": "both partners purified"}, "[10]": {"molecular_target": "T2, Plasmodium falciparum Hsp70-1", "experiment": "SPR; PfHsp70-1 immobilised as ligand; PfHop analyte 0-2000 nM, 25 C, PBS; with 25 uM EGCG; bivalent fit model", "details": "both partners purified"}, "[11]": {"molecular_target": "T2, Plasmodium falciparum Hsp70-1", "experiment": "SPR; ligand and analyte switched: PfHop immobilised, PfHsp70-1 analyte; with ATP; bivalent fit model", "details": "both partners purified"}, "[12]": {"molecular_target": "T2, Plasmodium falciparum Hsp70-1", "experiment": "SPR; PfHsp70-1 immobilised as ligand; PfHop analyte 0-2000 nM, 20 ul/min, 25 C, PBS; no nucleotide or inhibitor (NN); bivalent fit model", "details": "both partners purified"}, "[13]": {"molecular_target": "T2, Plasmodium falciparum Hsp70-1", "experiment": "SPR; ligand and analyte switched: PfHop immobilised, PfHsp70-1 analyte; with PES; bivalent fit model", "details": "both partners purified"}},
  "note": "Read-outs that look alike come from different tables or passages of the source.",
  "data": [
    {"molecule": "Nc1ncnc2c1ncn2[C@@H]1O[C@H](COP(=O)(O)OP(=O)(O)O)[C@@H](O)[C@H]1O", "note": "[ADP]", "values": [
      {"measurement": "Effect on association of PfHsp70-1 and PfHop", "setting": "[1]", "result": "promoted the association"}
    ]},
    {"molecule": "CCN(CC)CCCC(C)Nc1ccnc2cc(Cl)ccc12", "note": "(stereo not shown) [chloroquine]", "values": [
      {"measurement": "IC50", "setting": "[2]", "result": "21 ± 1.7", "unit": "nM"},
      {"measurement": "IC50", "setting": "[3]", "result": "29.1 ± 1.3", "unit": "nM"}
    ]},
    {"molecule": "O=C(O[C@@H]1Cc2c(O)cc(O)cc2O[C@@H]1c1cc(O)c(O)c(O)c1)c1cc(O)c(O)c(O)c1", "note": "[EGCG, (−)-Epigallocatechin-3-gallate]", "values": [
      {"measurement": "IC50", "setting": "[1]; ligand PfHop, analyte PfHsp70-1", "result": "14.6 ± 1.8", "unit": "nM"},
      {"measurement": "IC50", "setting": "[1]; ligand PfHsp70-1, analyte PfHop", "result": "13.9 ± 1.2", "unit": "nM"}
    ]},
    {"molecule": "Nc1ncnc2c1ncn2[C@@H]1O[C@H](COP(=O)(O)OP(=O)(O)OP(=O)(O)O)[C@@H](O)[C@H]1O", "note": "[ATP]", "values": [
      {"measurement": "Kd", "setting": "PfHop", "result": "861 ± 10", "unit": "nM"},
      {"measurement": "Effect on association of PfHsp70-1 and PfHop", "setting": "[1]", "result": "abrogated the association"}
    ]},
    {"molecule": "B1", "values": [
      {"measurement": "Kd", "setting": "[4]", "result": 1360, "unit": "nM"},
      {"measurement": "koff", "setting": "[4]", "result": 0.00914, "unit": "s⁻¹"},
      {"measurement": "kon", "setting": "[4]", "result": 6710, "unit": "M⁻¹ s⁻¹"},
      {"measurement": "Kd", "setting": "[5]", "result": 3.1, "unit": "nM"},
      {"measurement": "koff", "setting": "[5]", "result": 0.025, "unit": "s⁻¹"},
      {"measurement": "kon", "setting": "[5]", "result": "8.07e+06", "unit": "M⁻¹ s⁻¹"},
      {"measurement": "Kd", "setting": "[6]", "result": 79.8, "unit": "nM"},
      {"measurement": "koff", "setting": "[6]", "result": 0.0207, "unit": "s⁻¹"},
      {"measurement": "kon", "setting": "[6]", "result": 259000, "unit": "M⁻¹ s⁻¹"},
      {"measurement": "Kd", "setting": "[7]", "result": 214, "unit": "nM"},
      {"measurement": "koff", "setting": "[7]", "result": 0.0266, "unit": "s⁻¹"},
      {"measurement": "kon", "setting": "[7]", "result": 125000, "unit": "M⁻¹ s⁻¹"},
      {"measurement": "Kd", "setting": "[8]", "result": 3.08, "unit": "nM"},
      {"measurement": "koff", "setting": "[8]", "result": 0.00308, "unit": "s⁻¹"},
      {"measurement": "kon", "setting": "[8]", "result": 781000, "unit": "M⁻¹ s⁻¹"},
      {"measurement": "Kd", "setting": "[9]", "result": 4.49, "unit": "nM"},
      {"measurement": "koff", "setting": "[9]", "result": 0.0341, "unit": "s⁻¹"},
      {"measurement": "kon", "setting": "[9]", "result": "7.6e+06", "unit": "M⁻¹ s⁻¹"},
      {"measurement": "Kd", "setting": "[10]", "result": 20700, "unit": "nM"},
      {"measurement": "koff", "setting": "[10]", "result": 0.13, "unit": "s⁻¹"},
      {"measurement": "kon", "setting": "[10]", "result": 6310, "unit": "M⁻¹ s⁻¹"},
      {"measurement": "Kd", "setting": "[11]", "result": 80.9, "unit": "nM"},
      {"measurement": "koff", "setting": "[11]", "result": 0.0215, "unit": "s⁻¹"},
      {"measurement": "kon", "setting": "[11]", "result": 266000, "unit": "M⁻¹ s⁻¹"},
      {"measurement": "Kd", "setting": "[12]", "result": 4.24, "unit": "nM"},
      {"measurement": "koff", "setting": "[12]", "result": 0.00325, "unit": "s⁻¹"},
      {"measurement": "kon", "setting": "[12]", "result": 767000, "unit": "M⁻¹ s⁻¹"},
      {"measurement": "Kd", "setting": "[13]", "result": 232, "unit": "nM"},
      {"measurement": "koff", "setting": "[13]", "result": 0.00811, "unit": "s⁻¹"},
      {"measurement": "kon", "setting": "[13]", "result": 35000, "unit": "M⁻¹ s⁻¹"}
    ]}
  ]
}
